Data as given in paper PMC4915132, “Structural insights of ZIP4 extracellular domain critical for optimal zinc transport” (Nature Communications, 2016).

How the values were obtained:
[1] = molecular target: extracellular domain of ZIP14 from Pteropus alecto (Pteropus alecto); assay: SEC; purified protein on a size exclusion column; elution volume compared with standard proteins eluted on the same column
[2] = molecular target: pZIP14-ECD C147S mutant (Pteropus alecto); assay: as above
[3] = molecular target: the molecule itself; assay: as above
[4] = molecular target: the molecule itself; assay: cross-linking; disulfide through an engineered cysteine; full-length hZIP4-HA transiently expressed in HEK293T cells; 4-20% gradient SDS-PAGE with or without 5% β-mercaptoethanol, western blot with anti-HA

extracellular domain of ZIP14 from Pteropus alecto (from UniProt A5D7L5 61-174) (domain or fragment)
stoichiometry N [1]: 2

pZIP14-ECD C147S mutant (from UniProt A5D7L5 61-174) (domain or fragment)
stoichiometry N [2]: 2

B1: ZIP4 extracellular domain from Pteropus alecto (black fruit bat) (domain or fragment, UniProt L5KLU7 36-322, looked up)
chain: SGQGALDRVALGGLLNTLAARVHCTSGPCGKCLSVDDLLALGRPEEPGHLARLSAAAALYLSDPEGTCEDIRAGRWASRADHLLALLEGPKALAPGLSRLLQRIQAQTTGQPSAGEACVDPPQLLREAGVAGAPGSPGPVLATLLEHVGRGSCFHTLPTPQYFVDFVFQQSHGNTPNISVAELAALMQRLGVGGVTETHSDHHHQEKRVNRQGPTPLTAPNSSSDTWDTVCLSARDVMAVYGLSEQTGVTPEAWAQLSPALLQQQLSGACSPQPSHPAQNQLSQAEK
notes: Zinc transporter ZIP4 (SLC39A4) of Pteropus alecto, GenBank ELK11751, residues 36-322 (extracellular domain: HRD 36-191 and PCD 192-322); A selenomethionine-substituted form was also crystallised for phasing; Four intramolecular disulfide bonds (C59-C64, C67-C103, C153-C188, C266-C305); also called pZIP4-ECD; ZIP4-ECD; source: E. coli Origami B(DE3) pLysS, purified (Ni-NTA, Mono-Q, SEC); not …
stoichiometry N [3]: 2

B2: full-length human ZIP4 S297C mutant with C-terminal HA tag (natural protein, UniProt Q6P5W5-1 23-647, looked up)
chain: SPPAGLLSLLTSGQGALDQEALGGLLNTLADRVHCANGPCGKCLSVEDALGLGEPEGSGLPPGPVLEARYVARLSAAAVLYLSNPEGTCEDARAGLWASHADHLLALLESPKALTPGLSWLLQRMQARAAGQTPKMACVDIPQLLEEAVGAGAPGSAGGVLAALLDHVRSGSCFHALPSPQYFVDFVFQQHSSEVPMTLAELSALMQRLGVGREAHSDHSHRHRGASSRDPVPLISSSNSSSVWDTVCLSARDVMAAYGLSEQAGVTPEAWAQLCPALLQQQLSGACTSQSRPPVQDQLSQSERYLYGSLATLLICLCAVFGLLLLTCTGCRGVTHYILQTFLSLAVGAVTGDAVLHLTPKVLGLHTHSEEGLSPQPTWRLLAMLAGLYAFFLFENLFNLLLPRDPEDLEDGPCGHSSHSHGGHSHGVSLQLAPSELRQPKPPHEGSRADLVAEESPELLNPEPRRLSPELRLLPYMITLGDAVHNFADGLAVGAAFASSWKTGLATSLAVFCHELPHELGDFAALLHAGLSVRQALLLNLASALTAFAGLYVALAVGVSEESEAWILAVATGLFLYVALCDMLPAMLKVRDPRPWLLFLLHNVGLLGGWTVLLLLSLYEDDITF
notes: Human zinc transporter ZIP4 (SLC39A4), GenBank BC062625, with S297C (S297 is equivalent to S293 in pZIP4); Intermolecular disulfide C297-C297* in the dimer; also called S297C mutant ZIP4; source: HEK293T, transiently transfected, in lysate; not shown: HA, C-terminal, kept
stoichiometry N [4]: 2
